According to the supplement of paper PMC10724198:
± gives the standard deviation of the averaged measurements.

What follows are sequences tested on Saccharomyces cerevisiae (assay: protein stability index of tFT-peptide fusion (C-terminal peptide) (PSI (0-1 scale)); higher = more stable (slower turnover)). Details: genetic background: wild type; temperature: 30 C.
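Further: PSI is a weighted mean of sequencing reads over stability bins, variants kept only with over 10 reads, mCherry proximal and sfGFP distal, peptide attached via GGGS linker.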

Sequence | protein stability index
VSVSRGTNCCYD | 0.686 ± 0.023
VSVSSFCVLQSC | 0.547 ± 0.008
VSWGVALAVLRT | 0.603 ± 0.029
VSYEFHTRVSKN | 0.677 ± 0.039
VSYEGIVKDGSG | 0.647 ± 0.083
VTDTFKFYCERL | 0.7274 ± 0.0051
VTFFAFPLFFGF | 0.602 ± 0.041
VTHSASFSDVFR | 0.731 ± 0.034
VTKESPSLCLCV | 0.588 ± 0.041
VTLGLSMVQWTY | 0.5702 ± 0.0025
VTLRASGQVFPF | 0.7891 ± 0.0069
VTMQEKTCQLEA | 0.705 ± 0.1
VTRGGRVFIVDL | 0.807 ± 0.094
VVELRGEKLVGR | 0.6784 ± 0.005
VVEYCEGKAVYF | 0.695 ± 0.025
VVFISGVYCSRL | 0.688 ± 0.1
VVFTTLRHPFRG | 0.699 ± 0.027
VVGCCVTKGGGA | 0.667 ± 0.048
VVGRLRGNWGSI | 0.745 ± 0.039
VVGWGWGGVVRR | 0.763 ± 0.02
VVIGCRRVLGCV | 0.583 ± 0.03
VVLFFGPRWSLG | 0.624 ± 0.068
VVLSASAALFTF | 0.578 ± 0.029

Sequence | protein stability index
VVLWGAVSIVRT | 0.616 ± 0.028
VVPDSGESSASG | 0.654 ± 0.098
VVVARGGEEGWW | 0.656 ± 0.12
VVVLCGGSGGVG | 0.652 ± 0.059
VVVSGGGAGFWL | 0.728 ± 0.019
VVWGGWGGWGCW | 0.81 ± 0.17
VVYWGFVLGFGA | 0.582 ± 0.055
VWGERPRFGGWG | 0.691 ± 0.038
VWGGGRGGGGKG | 0.619 ± 0.031
VWGGNGRAASQL | 0.742 ± 0.019
VWGLGWEFWWGV | 0.7157 ± 0.0021
VWIGMSLSSLVM | 0.512 ± 0.011
VWLSRLVFLSPL | 0.602 ± 0.0046
VWRGCRVGGQGM | 0.687 ± 0.042
VWRGPVVAAGWG | 0.659 ± 0.018
VWRSERCRRGGV | 0.699 ± 0.15
VWSGGDGGGAVV | 0.733 ± 0.051
VWSILSCRTRLL | 0.503 ± 0.02
VWSPGGGAFVGG | 0.815 ± 0.047
VWTPWSTKDCLG | 0.721 ± 0.054
VYDASLPIRFFL | 0.697 ± 0.013
VYFLDPSSPPWF | 0.752 ± 0.011
VYRGSQKQRAQG | 0.685 ± 0.024

Sequence | protein stability index
VYRIAEENRRWV | 0.738 ± 0.12
VYRMYTLKRVKR | 0.686 ± 0.062
WAGQWCRGRAGG | 0.728 ± 0.056
WAIYPDVESVIP | 0.773 ± 0.0081
WALLAAGGGGRG | 0.651 ± 0.074
WARLHLSGRYSL | 0.747 ± 0.02
WAVGRGLVLSST | 0.684 ± 0.042
WCECGVWGGLWG | 0.719 ± 0.021
WCGKVVVGSRQG | 0.68 ± 0.032
WCLVTRGGDRDL | 0.6727 ± 0.0047
WCRHREYFYGSN | 0.657 ± 0.032
WCSVGVSGFVIR | 0.725 ± 0.0075
WDGWPTRSGGTG | 0.738 ± 0.023
WDSPVMCVTIID | 0.628 ± 0.0094
WDYQGIIFVAGG | 0.687 ± 0.0075
WEQQTSLPLLSL | 0.712 ± 0.021
WFAGRDRHRAND | 0.745 ± 0.1
WFCDNHRSFGWG | 0.747 ± 0.07
WFFPPLPPPLPR | 0.686 ± 0.04
WFLCCFGGVSLV | 0.619 ± 0.0064
WFLFIPLACLRP | 0.592 ± 0.0079
WFLVQQCGQMDR | 0.711 ± 0.022
WFNRRISPISGI | 0.676 ± 0.059

Sequence | protein stability index
WFSRVSSASRRS | 0.7073 ± 0.00084
WGACSALRRLGY | 0.684 ± 0.044
WGAGGGGWGGGV | 0.685 ± 0.024
WGEGCGSSEEGE | 0.695 ± 0.087
WGFVCWGCGGCS | 0.746 ± 0.028
WGGEVGQLLELW | 0.714 ± 0.048
WGGGCGRRIGCR | 0.7193 ± 0.007
WGGGGGGSGACL | 0.6974 ± 0.0069
WGGGPGLRVVGG | 0.731 ± 0.026
WGGGRGTAVVGV | 0.657 ± 0.028
WGGRSVGGVVWR | 0.714 ± 0.036
WGLCIGTGWALG | 0.708 ± 0.0092
WGLGLYEENTGC | 0.7468 ± 0.003
WGRCGSVGRGGA | 0.749 ± 0.024
WGRGHPIYVCRV | 0.689 ± 0.013
WGRRCRFIFRGM | 0.654 ± 0.074
WGSSGCLFGTVG | 0.769 ± 0.12
WGSSGWVGEGGG | 0.657 ± 0.044
WGTGGRRGVGHV | 0.709 ± 0.066
WGVGWSGRVGGS | 0.647 ± 0.045
WGWGVASRCCEG | 0.72 ± 0.042
WGYWGGVMGLEE | 0.738 ± 0.043
WHDLDRGSFRAV | 0.669 ± 0.023

Sequence | protein stability index
WITAYFPLHSSE | 0.714 ± 0.036
WLCGSIGHAMLG | 0.739 ± 0.062
WLFDFECRCILG | 0.65 ± 0.11
WLFDRLPFNAEN | 0.715 ± 0.046
WLFRGELCGGAN | 0.588 ± 0.014
WLGAYVRAWSVA | 0.533 ± 0.0011
WLGGGGGMQGVR | 0.669 ± 0.057
WLRTGNVLQELL | 0.699 ± 0.03
WLVCGRSFVFTL | 0.549 ± 0.058
WLVFRISLLRFD | 0.541 ± 0.026
WLVRHLGFVPWI | 0.7 ± 0.028
WLWLGFNRVFFY | 0.511 ± 0.033
WMAFRRIPTWSG | 0.679 ± 0.073
WMSLLEFGSLCG | 0.748 ± 0.15
WPGYLTNVLPVI | 0.65 ± 0.029
WPSTLHRGLSLP | 0.702 ± 0.074
WRCAGVGGVGGG | 0.708 ± 0.012
WRGIFPSRFCLS | 0.62 ± 0.039
WRGRWVWGVGEV | 0.628 ± 0.069
WRLAGRRGIQCD | 0.7 ± 0.017
WRLCWWVVESGG | 0.639 ± 0.02
WRPPPPYSPFSL | 0.74 ± 0.066
WRRLVGGVAWLW | 0.726 ± 0.08

Sequence | protein stability index
WRVVTPPSVDHR | 0.677 ± 0.015
WSAPHPVCSPPS | 0.697 ± 0.0093
WSGERCFLGFYR | 0.771 ± 0.087
WSPVPVPPPLPT | 0.722 ± 0.083
WSSCISCLLRGV | 0.688 ± 0.066
WSSSRPASGSSA | 0.708 ± 0.016
WSSVLGYFSRKE | 0.702 ± 0.024
WTAITDRRSRPD | 0.616 ± 0.063
WTDHISEHLHTV | 0.742 ± 0.039
WTFEYRNHKMKK | 0.7149 ± 0.0071
WVAFTRGGCGHC | 0.66 ± 0.017
WVCARQVGIGWG | 0.6657 ± 0.0019
WVCCVGAGFLVV | 0.594 ± 0.03
WVCRGSSLKSSI | 0.677 ± 0.058
WVFRHSTMNNEN | 0.672 ± 0.094
WVGEVSMGVRAG | 0.666 ± 0.014
WVGLGMSLRRAA | 0.564 ± 0.062
WVSMDFTGLVNG | 0.628 ± 0.015
WVTKGLYIMSTK | 0.663 ± 0.11
WVVGCVRGVWGA | 0.712 ± 0.051
WWEGSFRGGAVR | 0.592 ± 0.094
WYSSSRDLSVSG | 0.731 ± 0.0076
YASKNPSVVIFG | 0.68 ± 0.018

Sequence | protein stability index
YATLGPDRALVR | 0.655 ± 0.0095
YAVGWLLGGLWD | 0.765 ± 0.053
YCGCLGYATGRV | 0.671 ± 0.017
YCGLQSWLGVGG | 0.677 ± 0.0076
YCMRPLCLEMFR | 0.682 ± 0.016
YCPLSRTQSSAR | 0.859 ± 0.18
YCPVFSLPPFFR | 0.664 ± 0.086
YCRSFSGPFFDI | 0.745 ± 0.094
YCTMHLQLLQHS | 0.578 ± 0.012
YDLLLYGGATSP | 0.757 ± 0.084
YDRFVNGKSPGM | 0.701 ± 0.06
YDSGNWPGFRCQ | 0.73 ± 0.055
YDVLGLFPICKW | 0.729 ± 0.06
YEHPRLRNGSIM | 0.8 ± 0.24
YFCCFIPFFFDC | 0.663 ± 0.069
YFETNINKYLRM | 0.7107 ± 0.00072
YFFECFKECREQ | 0.749 ± 0.015
YGGCGFEEEGVR | 0.73 ± 0.02
YGGSLLNVFGLG | 0.645 ± 0.0078
YGIGVRMPRSYW | 0.709 ± 0.035
YGPRNRNPPNAG | 0.688 ± 0.099
YHPPLDHHQCTE | 0.648 ± 0.063
